Measured values from paper PMC5125937 (Molecules and Cells, 2016).

T1: EcZapD H140R (residues 1-247) (E. coli, UniProt P36680 1-247, H140R)
T1 sequence: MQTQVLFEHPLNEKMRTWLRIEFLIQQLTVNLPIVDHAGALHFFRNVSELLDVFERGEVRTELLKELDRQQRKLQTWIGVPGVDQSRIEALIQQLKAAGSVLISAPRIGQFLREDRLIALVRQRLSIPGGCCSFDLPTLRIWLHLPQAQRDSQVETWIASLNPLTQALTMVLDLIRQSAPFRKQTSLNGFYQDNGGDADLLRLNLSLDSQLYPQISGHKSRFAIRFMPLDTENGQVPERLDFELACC

T2: EcZapD E22R (residues 1-247) (E. coli, UniProt P36680 1-247, E22R)
T2 sequence: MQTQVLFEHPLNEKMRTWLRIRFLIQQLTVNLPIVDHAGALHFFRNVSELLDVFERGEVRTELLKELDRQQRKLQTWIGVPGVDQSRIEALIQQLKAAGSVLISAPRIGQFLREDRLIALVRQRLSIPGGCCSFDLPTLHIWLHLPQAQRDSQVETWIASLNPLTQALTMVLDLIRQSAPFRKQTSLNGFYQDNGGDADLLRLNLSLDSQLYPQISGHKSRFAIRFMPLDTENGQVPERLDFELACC

B1: EcZapD WT (residues 1-247) (natural protein)
chain: MQTQVLFEHPLNEKMRTWLRIEFLIQQLTVNLPIVDHAGALHFFRNVSELLDVFERGEVRTELLKELDRQQRKLQTWIGVPGVDQSRIEALIQQLKAAGSVLISAPRIGQFLREDRLIALVRQRLSIPGGCCSFDLPTLHIWLHLPQAQRDSQVETWIASLNPLTQALTMVLDLIRQSAPFRKQTSLNGFYQDNGGDADLLRLNLSLDSQLYPQISGHKSRFAIRFMPLDTENGQVPERLDFELACC

Key:
SEC-MALS = biological target: the molecule itself; assay: SEC-MALS
[1] = biological target: B1; assay: BLI
[2] = biological target: T1, EcZapD H140R (residues 1-247); assay: BLI
[3] = biological target: T2, EcZapD E22R (residues 1-247); assay: BLI

Row | Kd [1] | Kd [2] | Kd [3] | Binder | stoichiometry N (SEC-MALS)
1 | – | – | – | B1 | 2
2 | 4.7 ± 0.5 µM | – | – | KEPDYLDIPAFLRDQAD [GST-FtsZ_(367-383) K380D] | –
3 | 4.4 ± 0.5 µM | 16 ± 1 µM | 68 ± 2.2 µM | KEPDYLDIPAFLRKQAD [GST-FtsZ_(367-383)] | –
4 | > 2000 µM | – | – | KEPDYLDIPAFLR [GST-FtsZ_(367-379)] | –
